The nature of this series: soluble on expression in E. coli; label from the status in PepcDB or PDB records.
For the sequence “MGSDKIHHHHHHMLRLSRELEVGEATVKRWLAGKGLTIDRLERLAGLCGMVLGDLVREAEEAPGVLAHELTLAQERALSSNIFLSFLFMTILNGIQPDETAADFSVPPREMEAALTRLERLALIDRLRSGRVRPLVDRNMVFRKLPLRNLFETHMKRVFFELDYGAPETIYTSEVVKLSVAGAAQLAELLERFRGEVQSLADRDAEKANKDRDWFGVLCVMRPLEMDPIRNAWWELS”, the “soluble on expression in E. coli” value is reported as “not soluble”.

For “MIISPLFLKDKSNSEDDASWVSRMMPVDPERGFPLNSHRSWHGGIHIPHTDSGGTPEKIRAIADGTVHSLRQPVGDKKGIPPYNYNGATDCGYVLLKHETEIGSGENAKVVYFSLYMHLASIDAAVKTGEKIYRKDPIGTVGQVDGGNAVHFQIFCDDTNLTKLVGRTTPELDLTKNGRTDAVYGDMYFYLPTGTKFYSHAPANNATTTTEAETYTSTEPLFVSMSFDKGKCTMLTRKKGVFSIGKYSEVGEKLENTDGADYEYNVYAQAKKLYPQSQSAGYELLRFGRVINTDYETLVPADAPLWRTISYPGGKGVVNLALPAVKKFSDGDFPHWTGWQLIDDDTDENSQCNSEQVLCRIGDDMQGLICHLPLEWDASTLEKRLSWLKTTVINESLANQKASHQVDDTGNNASGYAFDNINPDMSVLNAQSTPSFEQAAKDTAMAEADWNALIEHAKALCFDVSGLPVGRVWHFNPISFIAHFRKCGWLDPEKIKSILTSALNKKRNVRKITLIEKASDSNYTFLNLAMRKYNILTPNRQSHFLGQGAVESDSLTAMQEVSQEQVIVNGKQTGGGIVIKSTLNESELGHWYGSEPSELDIYYSGNKYNKNGGLIAGSYSWSNGNCGDVDAQKFRGRGFKMLTGRDKYADYWVYRGWLLKSSFDAYWWDDVKYKSKNLKAMKKRPAIIDDPHKITASPYNCIDSGSFFITCFRRSTVKEIDKDQAESADDSVVTKVTQAINGGDIGLSQRKVMTNNAKGKLNDKY”, the “soluble on expression in E. coli” value was “not soluble”.

On to “NEDCNTIFGADFSHEGETPGLGAEITRSEFSGQFIGKEIFKEGEFRSVAVVKKGQKAEGKDYVDGISGGTLTSDGVNEMLISSLRPYALYLMNNVKK”, for which the “soluble on expression in E. coli” value was “not soluble”.

For “MSLSHVFEALSTETLPVRLGGNAAMKEKVGSDSSRWAIREVGDGNLNLVFIVTGEAGAVIVKQALPYVRLVGESWPLPLKRSFFEYHALKRQGARDPGMVPEILFFDEAQAIIVMEFLTPHIILRRALIDGRELPKIGRDLGLFVARTLFRGSDLSMVTREKKADVALFSDNVELCDITENLVFSDPYFEAKLNHHTTPQLDPIVAELRADRELKVEAQRLKHLFSAKAETLCHGDLHTGSVMVTDDETRVIDPEFAFYGPISFDVGMLIANFWMSYFSQAGHETAPGARDSMRAYLLDTIDTLWETFRAEFAALWRTERKGILYQASLFEDRQDPLAAEQALNIVIDEIWHEMLGFAGIETHRRILGLAHNADFETITDPDRRASCESKALKFGRHLAVNRQRIHSLRDIRETVERLEKEILAEGHHHHHH”, the “soluble on expression in E. coli” value was “soluble”.

“SSFFGFGQTAEIDIVLNDAETRKKVEHKTEDGKKDKYFLFYDGETVSGKVNVTLKTPGKRLEHYGIKIEFVGQIELYYDRGNHHEFVSLVKDLARPGELSQSQTFDFELTHVEKPYESYTGQNVKLRYFLRATISRRLNDISKEMDIVVQTLCTYPEINSSIKMEVGIEDCLHIEFEYNKSKYHLRDVIVGKIYFLLVRIKIKHMEIDIIKRETTGTGPSVYHENDTIAKYEIMDGAPVRGESIPIRLFLAGYEMTPTMRDINKKFSVRYYLNLVLIDEEERRYFKQQEITLWRKGDIVRRSMSQQATIAAQRYEGSNPEPTSAQAKEETD”: the “soluble on expression in E. coli” value was “soluble”.

Turning to “MKTYSEARARLRWYQGRYIDFDGWYGYQCADLAVDYIYWLLEIRMWGNAKDAINNDFKNMATVYENTPSFVPQIGDVAVFTKGIYKQYGHIGLVFNGGNTNQFLILEQNYDGNANTPAKLRWDNYYGCTHFIRPKYKSEGLMNKITNKVKPPAQKAVGKSASKITVGSKAPYNLKWSKGAYFNAKIDGLGATSATRYGDNRTNYRFDVGQAVYAPGTLIYVFEIIDGWCRIYWNNHNEWIWHERLIVKEVFLEHHHHHH”, the “soluble on expression in E. coli” value is given as “not soluble”.

In the case of “MSHAVSRLRQERLARSLKPFVARGSRMPRCEGCRLLPSYCMCAWRPRVEARAGMCLVMHDIEALKPTNTGWLIADTVADTFAFGWSRTEVDPRLLELLADPQWQPYLVFPGEYVAAERVVNEVAPLVEGKRPLFILLDATWTEARKMFRKSPYLEPFPVLSLLPEQLSRYRLRRSTRGEHLCTAEVAALCLELAGDEAAGEALGAYLEVFSERYLGAKRHIPLDEASPAHRALAPFRG”, the “soluble on expression in E. coli” value is “not soluble”.

Turning to “MMFDRETQVVDCRCGGGLGKGGGLAQRGTLSEAGRADVVAVAMSPGQRHITKPVCEITYGMRKENIQVSVLVLYSGSGIPESGMRTGSFVLSPVEVAQIEMHKLAVIHLGNIKDHVIRKTREILSQVDIPAIIVSQIPVDFEDFAEAGIKTRLVMPRDENIRTKGIVMDMVSGVTRGDSCPRDKLNLIVKYVKTTLDQLKDHKGVALEHHHHHH”, the “soluble on expression in E. coli” value is recorded as “soluble”.

“MGHHHHHHDTDIPTTENLTFQGACRLVANCRDVRCRRLLRNVMPVAGSELPRRPLPPAAQERDAEPRPPHGELQYLGQIQHILRCGVRKDDRTGTGTLSVFGMQARYSLRDEFPLLTTKRVFWKGVLEELLWFIKGSTNAKELSSKGVKIWDANGSRDFLDSLGFSTREEGDLGPVYGFQWRHFGAEYRDMESDYSGQGVDQLQRVIDTIKTNPDDRRIIMCAWNPRDLPLMALPPCHALCQFYVVNSELSCQLYQRSGDMGLGVPFNIASYALLTYMIAHITGLKPGDFIHTLGDAHIYLNHIEPLKIQLQREPRPFPKLRILRKVEKIDDFKAEDFQIEGYNPHPTIKMEMAV”: the “soluble on expression in E. coli” value was “soluble”.

On to “MSLNTLNQDIAFKIFTMFYKVCYGKKKHTYTSFFEKFQICTYNDILLLCDEVAKLFKMENSLENVTLPCKVFGDVHGNLFDLLDFFNLYNWPMHNNKVFLGNLINRGNYSLEVICLLFSLKILFPKHIYLLRGNHEDRLFNYIYGFYKDIEIKMKTNMEYMGIINYQEQVISAHSYELFNRINDVFEFFPLCVLLDKNILCIHGGIGDSVMTISDYQHIRKPILIPQNVDRYSNNKSEHVKKIIIDTLWSDPINYNDELDLQLLKNSSTYDIIPSRRGNITFKFGKHRLNDFLKNNQLKLIIRGHECVQEGYKYSYKRKLLTLFSAKNYCNKYNNNASNAFIVRKNKNIIIFNQILKYQHNCEGHHHHHH”, for which the “soluble on expression in E. coli” value is “not soluble”.

“MGSDKIHHHHHHMKTLKFKLYQHKRNRHLKRIINAAGVIYNHCIALHKRYYRMWGNHLSCAKLQSHIAKLRKRNLFWQSLGSQAVQDICQRIEKAYQLFFKHNKKGVRPPGFKKVKKYKSFTLKQAGYKFLGSNRVKIGHRVYQFWKSRDIEGTVKTLTIKRTPLGELFMVVVVDNVSQAEIEVKTGKIAGFDFGLKTFLTCSDGTKIESPQFFKQSLNAIKKASRQHSKKLKSSSNRERARKNLVRKYEDISHRRRDWFWKLAHELTDKFDILCFETLNLKGMQRLWGRKISDLAFGEFLQILKWIAKKKNKLVVFIDQWYPSTKTCSGCGHVLEELDLSIREWRCPSCQSVNGRDENASKVICAVGASTVGLGDVSRYETAIAV”: the “soluble on expression in E. coli” value is recorded as “not soluble”.

Take “MSFLGFTLVGKKIRWTEKSLANFKHRVRQLTGRSWGVSMEYRLEKLGQYLRGWFGYYGISQYYRPIPELDEWIRRRVRMCYWKQWRWARTKIRHLLDLGIPLKAAIQHGVSSLSYWRMARTPLEHHHHHH”: the “soluble on expression in E. coli” value is recorded as “soluble”.

For the sequence “EFSGSFNRQFKLNKPVIPVNTEYVTRKEFNEYKDSNDQRLTKIENKVDKLEIKVDKLEKKVDKLEVKVDKLVETVNAQGEDLNNFKVEVRGTLQSQGETLQLILQTLQGMSKRLDSVEGRLDSMDGRLDSMETRLDKID”, the “soluble on expression in E. coli” value is listed as “soluble”.

Take “EVVVVGYQEVRRRDLTGSVAKANMADVLTAPVASFDQALGGRIAGVNVTSGEGMPGGNMSIVIRGNNSLTQENSPLFVIDGFPIEDSSAASTLNPSDIESLDFLKDASATAIYGARGANGVVIITTKKGK”: the “soluble on expression in E. coli” value is “not soluble”.

As for “INIEIAYAFPERYYLKSFQVDEGITVQTAITQSGILSQFPEIDLSTNKIGIFSRPIKLTDVLKEGDRIEIYRPLLADPKEIRRK”, the “soluble on expression in E. coli” value is “not soluble”.

The values are drawn from the DeepSol protein solubility set.
